pKd: −log10 of the molar value.
Biological target: human angiotensin-converting enzyme 2 receptor (hACE2) (human) (UniProt Q9BYF1)
Assay: SPR

“S-2P (prefusion-stabilised SARS-CoV-2 spike with K986P and V987P) (domain or fragment)” showed a pKd of 9.70.

Source: article PMC10246912
